Data published in US20230235012A1 (ALPINE IMMUNE SCIENCES, published 2023).

T1: human ICOS, full-length, expressed on transfected Expi293 cells (human, UniProt Q9Y6W8 21-199)
T1 construct: whole, on cells
T1 sequence (looked up): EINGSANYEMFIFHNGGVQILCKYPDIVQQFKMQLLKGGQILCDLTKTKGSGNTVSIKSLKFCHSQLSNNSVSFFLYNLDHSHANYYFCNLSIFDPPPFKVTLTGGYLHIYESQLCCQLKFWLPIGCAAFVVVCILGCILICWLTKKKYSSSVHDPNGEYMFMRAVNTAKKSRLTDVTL


What was measured:
[1] = molecular target: T2, human CD28, full-length, expressed on transfected Expi293 cells (human, UniProt P10747 19-220); experiment: flow cytometry, 100 nM, Expi293 cells with human CD28
T2 construct: whole, on cells

[2] = molecular target: T1, human ICOS, full-length, expressed on …; experiment: flow cytometry, 100 nM, Expi293 cells with human ICOS
[3] = molecular target: T3, human CTLA-4, full-length, expressed on transfected Expi293 cells (human, UniProt P16410 36-223); experiment: flow cytometry, 100 nM, Expi293 cells with human CTLA-4
T3 construct: whole, on cells
T3 sequence (P16410 36-223): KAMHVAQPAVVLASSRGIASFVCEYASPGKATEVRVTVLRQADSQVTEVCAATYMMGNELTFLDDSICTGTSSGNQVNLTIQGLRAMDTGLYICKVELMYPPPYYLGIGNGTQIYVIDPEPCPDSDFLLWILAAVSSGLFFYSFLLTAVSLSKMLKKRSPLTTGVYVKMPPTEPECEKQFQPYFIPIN

Binder	MFI [1]	MFI ratio to WT (ΔWT) [1]	MFI [2]	MFI ratio to WT (ΔWT) [2]	MFI [3]	MFI ratio to WT (ΔWT) [3]
wild-type ICOSL IgV-Fc fusion (Fc fusion, also called WT ICOSL) DTQEKEVRAMVGSDVELSCACPEGSRFDLNDVYVYWQTSESKTVVTYHIPQNSSLENVDSRYRNRALMSPAGMLRGDFSLRLFNVTPQDEQKFHCLVLSQSLGFQEVLSVEVTLHVAANFSVGSGGGGSEPKSSDKTHTCPPCPAPEAEGAPSVFLFPPKPKDTLMISRTPEVTCVVVDVSHEDPEVKFNWYVDGVEVHNAKTKPREEQYNSTYRVVSVLTVLHQDWLNGKEYKCKVSNKALPAPIEKTISKAKGQPREPQVYTLPPSREEMTKNQVSLTCLVKGFYPSDIAVEWESNGQPENNYKTTPPVLDSDGSFFLYSKLTVDKSRWQQGNVFSCSVMHEALHNHYTQKSLSLSPG	22300 MFI	1 fold	212000 MFI	1 fold	330000 MFI	1 fold
variant ICOSL IgV-Fc fusion N52A/N57Y/Q100A (Fc fusion) DTQEKEVRAMVGSDVELSCACPEGSRFDLNDVYVYWQTSESKTVVTYHIPQASSLEYVDSRYRNRALMSPAGMLRGDFSLRLFNVTPQDEQKFHCLVLSASLGFQEVLSVEVTLHVAANFSVGSGGGGSEPKSSDKTHTCPPCPAPEAEGAPSVFLFPPKPKDTLMISRTPEVTCVVVDVSHEDPEVKFNWYVDGVEVHNAKTKPREEQYNSTYRVVSVLTVLHQDWLNGKEYKCKVSNKALPAPIEKTISKAKGQPREPQVYTLPPSREEMTKNQVSLTCLVKGFYPSDIAVEWESNGQPENNYKTTPPVLDSDGSFFLYSKLTVDKSRWQQGNVFSCSVMHEALHNHYTQKSLSLSPG	147000 MFI	6.6 fold	261000 MFI	1.23 fold	320000 MFI	0.97 fold
variant ICOSL IgV-Fc fusion N52A/N57F/Q100S (Fc fusion) DTQEKEVRAMVGSDVELSCACPEGSRFDLNDVYVYWQTSESKTVVTYHIPQASSLEFVDSRYRNRALMSPAGMLRGDFSLRLFNVTPQDEQKFHCLVLSSSLGFQEVLSVEVTLHVAANFSVGSGGGGSEPKSSDKTHTCPPCPAPEAEGAPSVFLFPPKPKDTLMISRTPEVTCVVVDVSHEDPEVKFNWYVDGVEVHNAKTKPREEQYNSTYRVVSVLTVLHQDWLNGKEYKCKVSNKALPAPIEKTISKAKGQPREPQVYTLPPSREEMTKNQVSLTCLVKGFYPSDIAVEWESNGQPENNYKTTPPVLDSDGSFFLYSKLTVDKSRWQQGNVFSCSVMHEALHNHYTQKSLSLSPG	157000 MFI	7 fold	242000 MFI	1.14 fold	255000 MFI	0.77 fold
variant ICOSL IgV-Fc fusion N52G/N57V (Fc fusion) DTQEKEVRAMVGSDVELSCACPEGSRFDLNDVYVYWQTSESKTVVTYHIPQGSSLEVVDSRYRNRALMSPAGMLRGDFSLRLFNVTPQDEQKFHCLVLSQSLGFQEVLSVEVTLHVAANFSVGSGGGGSEPKSSDKTHTCPPCPAPEAEGAPSVFLFPPKPKDTLMISRTPEVTCVVVDVSHEDPEVKFNWYVDGVEVHNAKTKPREEQYNSTYRVVSVLTVLHQDWLNGKEYKCKVSNKALPAPIEKTISKAKGQPREPQVYTLPPSREEMTKNQVSLTCLVKGFYPSDIAVEWESNGQPENNYKTTPPVLDSDGSFFLYSKLTVDKSRWQQGNVFSCSVMHEALHNHYTQKSLSLSPG	69100 MFI	3.1 fold	332000 MFI	1.57 fold	52500 MFI	0.16 fold
variant ICOSL IgV-Fc fusion N52C/N57E/Q100S (Fc fusion) DTQEKEVRAMVGSDVELSCACPEGSRFDLNDVYVYWQTSESKTVVTYHIPQCSSLEEVDSRYRNRALMSPAGMLRGDFSLRLFNVTPQDEQKFHCLVLSSSLGFQEVLSVEVTLHVAANFSVGSGGGGSEPKSSDKTHTCPPCPAPEAEGAPSVFLFPPKPKDTLMISRTPEVTCVVVDVSHEDPEVKFNWYVDGVEVHNAKTKPREEQYNSTYRVVSVLTVLHQDWLNGKEYKCKVSNKALPAPIEKTISKAKGQPREPQVYTLPPSREEMTKNQVSLTCLVKGFYPSDIAVEWESNGQPENNYKTTPPVLDSDGSFFLYSKLTVDKSRWQQGNVFSCSVMHEALHNHYTQKSLSLSPG	13400 MFI	0.6 fold	125000 MFI	0.59 fold	10600 MFI	0.03 fold

Continued, values first:

MFI [1]	MFI ratio to WT (ΔWT) [1]	MFI [2]	MFI ratio to WT (ΔWT) [2]	MFI [3]	MFI ratio to WT (ΔWT) [3]	Binder
98700 MFI		303000 MFI				variant ICOSL IgV-Fc fusion N52G/Q100A (Fc fusion) DTQEKEVRAMVGSDVELSCACPEGSRFDLNDVYVYWQTSESKTVVTYHIPQGSSLENVDSRYRNRALMSPAGMLRGDFSLRLFNVTPQDEQKFHCLVLSASLGFQEVLSVEVTLHVAANFSVGSGGGGSEPKSSDKTHTCPPCPAPEAEGAPSVFLFPPKPKDTLMISRTPEVTCVVVDVSHEDPEVKFNWYVDGVEVHNAKTKPREEQYNSTYRVVSVLTVLHQDWLNGKEYKCKVSNKALPAPIEKTISKAKGQPREPQVYTLPPSREEMTKNQVSLTCLVKGFYPSDIAVEWESNGQPENNYKTTPPVLDSDGSFFLYSKLTVDKSRWQQGNVFSCSVMHEALHNHYTQKSLSLSPG
23700 MFI	1.1 fold	260000 MFI	1.23 fold	14700 MFI	0.04 fold	variant ICOSL IgV-Fc fusion N52G/N57V/Q100G (Fc fusion) DTQEKEVRAMVGSDVELSCACPEGSRFDLNDVYVYWQTSESKTVVTYHIPQGSSLEVVDSRYRNRALMSPAGMLRGDFSLRLFNVTPQDEQKFHCLVLSGSLGFQEVLSVEVTLHVAANFSVGSGGGGSEPKSSDKTHTCPPCPAPEAEGAPSVFLFPPKPKDTLMISRTPEVTCVVVDVSHEDPEVKFNWYVDGVEVHNAKTKPREEQYNSTYRVVSVLTVLHQDWLNGKEYKCKVSNKALPAPIEKTISKAKGQPREPQVYTLPPSREEMTKNQVSLTCLVKGFYPSDIAVEWESNGQPENNYKTTPPVLDSDGSFFLYSKLTVDKSRWQQGNVFSCSVMHEALHNHYTQKSLSLSPG
132000 MFI				252000 MFI		variant ICOSL IgV-Fc fusion N52V/N57L/Q100A (Fc fusion) DTQEKEVRAMVGSDVELSCACPEGSRFDLNDVYVYWQTSESKTVVTYHIPQVSSLELVDSRYRNRALMSPAGMLRGDFSLRLFNVTPQDEQKFHCLVLSASLGFQEVLSVEVTLHVAANFSVGSGGGGSEPKSSDKTHTCPPCPAPEAEGAPSVFLFPPKPKDTLMISRTPEVTCVVVDVSHEDPEVKFNWYVDGVEVHNAKTKPREEQYNSTYRVVSVLTVLHQDWLNGKEYKCKVSNKALPAPIEKTISKAKGQPREPQVYTLPPSREEMTKNQVSLTCLVKGFYPSDIAVEWESNGQPENNYKTTPPVLDSDGSFFLYSKLTVDKSRWQQGNVFSCSVMHEALHNHYTQKSLSLSPG
142000 MFI		214000 MFI				variant ICOSL IgV-Fc fusion N52H/N57Y/Q100K (Fc fusion) DTQEKEVRAMVGSDVELSCACPEGSRFDLNDVYVYWQTSESKTVVTYHIPQHSSLEYVDSRYRNRALMSPAGMLRGDFSLRLFNVTPQDEQKFHCLVLSKSLGFQEVLSVEVTLHVAANFSVGSGGGGSEPKSSDKTHTCPPCPAPEAEGAPSVFLFPPKPKDTLMISRTPEVTCVVVDVSHEDPEVKFNWYVDGVEVHNAKTKPREEQYNSTYRVVSVLTVLHQDWLNGKEYKCKVSNKALPAPIEKTISKAKGQPREPQVYTLPPSREEMTKNQVSLTCLVKGFYPSDIAVEWESNGQPENNYKTTPPVLDSDGSFFLYSKLTVDKSRWQQGNVFSCSVMHEALHNHYTQKSLSLSPG
